Experimental data from US20230039109A1 (Novartis, published 2023).

Molecular target: T1, human CD73 expressed on the cell surface (human, UniProt P21589 27-549)
T1 construct: whole, on cells; also called surface CD73
T1 sequence (looked up): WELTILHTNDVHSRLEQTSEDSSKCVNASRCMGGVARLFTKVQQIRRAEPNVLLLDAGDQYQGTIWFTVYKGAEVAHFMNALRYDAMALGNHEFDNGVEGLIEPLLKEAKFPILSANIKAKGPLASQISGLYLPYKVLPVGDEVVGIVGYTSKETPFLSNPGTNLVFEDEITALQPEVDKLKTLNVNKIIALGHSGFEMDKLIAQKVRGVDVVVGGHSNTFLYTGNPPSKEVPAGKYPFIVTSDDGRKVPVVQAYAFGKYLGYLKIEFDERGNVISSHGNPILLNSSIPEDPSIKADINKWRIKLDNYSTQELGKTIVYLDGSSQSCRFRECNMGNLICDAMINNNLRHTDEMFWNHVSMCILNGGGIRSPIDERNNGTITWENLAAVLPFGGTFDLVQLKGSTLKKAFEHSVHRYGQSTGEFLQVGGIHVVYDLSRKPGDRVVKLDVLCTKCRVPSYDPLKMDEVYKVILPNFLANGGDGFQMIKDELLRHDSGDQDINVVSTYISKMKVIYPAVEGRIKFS
Assay: flow cytometry, biotinylated antibody in human whole blood, CD8+ T cells, streptavidin-APC
Procedure: Whole blood target engagement was assessed by flow cytometry using whole blood from healthy human donors. Briefly, biotinylated antibodies were incubated with whole blood for 30 minutes prior to red blood cell lysis and fixation. Fixed cells were stained for CD3 and CD8 to identify CD8+ T cells, and streptavidin-APC to detect biotin. After staining, the cell were washed and subjected to flow cytometry analysis.

B1: anti-CD73 antibody 356.B (antibody, human IgG4 S228P, kappa, V domains shown)
VH: QVQLQESGPGLVKPSETLSLTCTVSGGSIEGRYWSWIRQPPGKGLEWIGYIYGSGSTKYNPSLKSRVTISVDTSKNQFSLKLSSVTAADTAVYYCARESQESPYNNWFDPWGQGTLVTVSS
VL: DIQMTQSPSSVSASVGDRVTITCRASQGISSWLAWYQQKPGKAPKLLIYAASSLQSGVPSRFSGSGSGTDFTLTISSLQPEDFATYYCQQGNSFPRTFGGGTKVEIKR
notes: IgG4 S228P/L235E format; The last heavy chain residue X is K or absent; Biotinylated in the whole blood flow cytometry assay
EC50 (read off the curve): ~6 ng/mL
